Measurements published in patent US6458760B1, “Method for treating tissue damaged from ischemia” (Henry Ford Health System, priority 1998, dated 2002).

System: rats with middle cerebral artery occlusion
Assay: Stefin A in rat stroke model, infarcted brain tissue volume
Assay type: in vivo
Settings: compared to animals without inhibitor
Text: The inventors have used a stroke model in rats, explained in more detail hereinbelow, to verify this. In this model, a nylon monofilament is advanced through the vasculature of anesthetized rats until it blocks the middle cerebral artery. The monofilament is left in place for two hours. Withdrawal of the monofilament initiates reperfusion of the ischemic tissue. The extent of damage is visualized seven days after the ischemic event by removing the brain of the animal and examining it in section.
The initial cathepsin inhibitor used by the inventors was a large naturally occurring molecule, stefin A (MW 15,000). In the stroke model, this molecule was administered intraventricularly in some studies prior to the occlusion and intravenously upon reperfusion in others.

B1: stefin A: large naturally occurring molecule (MW 15,000), cathepsin inhibitor, recombinant preparation, used as control (protein, UniProt P01040 1-98, looked up)
Cystatin-A: MIPGGLSEAKPATPEIQEIVDKVKPQLEEKTNETYGKLEAVQYKTQVVAGTNYYIKVRAGDNKYMHLKVFKSLPGQNEDLVLTGYQVDKNKDDELTGF
reduction in the volume of the infarcted brain tissue (administered intravenously upon reperfusion): ~40% | reduction in the volume of the infarcted brain tissue (administered intraventricularly prior to the occlusion): ~40%
